Measured values taken from patent publication US20260125665.

Substance: Thrombin
- cleavage by thrombin (reducing SDS-PAGE, Western blot with anti-human UPA antibody) (Microlyse variant 1.0): For both ML 1.0 and ML 1.1 a distinct band at around 35 Kd is observed, indicating cleavage of Microlyse by thrombin.
- cleavage by thrombin (reducing SDS-PAGE, Western blot with anti-human UPA antibody) (Microlyse variant 1.1): For both ML 1.0 and ML 1.1 a distinct band at around 35 Kd is observed, indicating cleavage of Microlyse by thrombin.
